According to patent publication US20220227872A1 (published 2022):

B1: 1C1mut BiTE (1C1mut scFv fused to an scFv derived from anti-CD3 clone UCHT1) (bispecific antibody, V domains shown)
VH: QVQLVQSGAEVKKPGSSVKVSCKASGGTFSSYAISWVRQAPGQGLEWMGGIIPIFGTANYAQKFQGRVTITADKSTSTAYMELSSLRSEDTAVYYCASLISYYGDPTGFDYWGQGTLVTVSS
VL: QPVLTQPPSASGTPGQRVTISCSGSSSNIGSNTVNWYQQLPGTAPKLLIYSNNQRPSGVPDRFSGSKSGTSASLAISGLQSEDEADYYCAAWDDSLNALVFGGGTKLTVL
B2: hTEM1-SpyC (other)
chain: QDPWAAEPRAACGPSSCYALFPRRRTFLEAWRACRELGGDLATPRTPEEAQRVDSLVGAGPASRLLWIGLQRQARQCQLQRPLRGFTWTTGDQDTAFTNWAQPASGGPCPAQRCVALEASGEHRWLEGSCTLAVDGYLCQFGFEGACPALQDEAGQAGPAVYTTPFHLVSTEFEWLPFGSVAAVQCQAGRGASLLCVKQPEGGVGWSRAGPLCLGTGCSPDNGGCEHECVEEVDGHVSCRCTEGFRLAADGRSCEDPCAQAPCEQQCEPGGPQGYSCHCRLGFRPAEDDPHRCVDTDECQIAGVCQQMCVNYVGGFECYCSEGHELEADGISCSPAGAMGAQASQDLGDELLDDGEDEEDEDEAWKAFNGGWTEMPGILWMEPTQPPDFALAYRPSFPEDREPQIPYPEPTWPPPLSAPRVPYHSSVLSVTRPVVVSATHPTLPSAHQPPVIPATHPALSRDHQIPVIAANYPDLPSAYQPGILSVSHSAQPPAHQPPMISTKYPELFPAHQSPMFPDTRVAGTQTTTHLPGIPPNHAPLVTTLGAQLPPQAPDALVLRTQATQLPIIPTAQPSLTTTSRSPVSPAHQISVPAATQPAALPTLLPSQSPTNQTSPISPTHPHSKAPQIPREDGPSPKLALWLPSPAPTAAPTALGEAGLAEHSQRDDRWL
modifications: covalently bound to biotinylated SpyTag peptide (bSpyT)

How the values were obtained:
[1] = target: T1, hTEM1-SpyC (human TEM1 extracellular domain fused to SpyCatcher) (UniProt Q9HCU0 18-687, covalently bound to biotinylated SpyTag peptide (bSpyT)); assay: SPR; BiTE analyte, hTEM1-SpyC immobilized
T1 chain: B2 chain

1C1 BiTE = assay: SPR; BiTE analyte, hTEM1-SpyC immobilized

Kd [1] [nM]	Kd (1C1 BiTE) [nM]	Binder
~1	–	B1
–	~68	B2
